Our source for the secretion of the fusion protein values is patent US20040088744A1.

This test addresses fusion protein consisting of apoB17 and the receptor binding domain of apoB ("B17(B69-79)"). The test can be described thus: cell-based or functional assay.

For the substance “ligand binding domain of the LDL receptor ("soluble LDL receptor") (from UniProt P01130 22-354)”, the secretion of the fusion protein was found to be 10 fold.
